We go through seven molecules from US20240261333A1, “NOVEL TARGETS FOR ENHANCING ANTI-TUMOR IMMUNITY” (THE BROAD INSTITUTE, INC., priority 2021, published 2024).

T1: B3GNT2 (Homo sapiens, UniProt Q9NY97)
T1 construct: The respective ORFs of candidate genes [CD274 (NM_014143), MCL1 (NM_021960), JUNB (NM_002229), and B3GNT2 (NM_006577)] were synthesized; expressed in transfected cells; host or cells: A375 melanoma cells (lentiviral ORF overexpression)
T1 sequence (Q9NY97 1-397): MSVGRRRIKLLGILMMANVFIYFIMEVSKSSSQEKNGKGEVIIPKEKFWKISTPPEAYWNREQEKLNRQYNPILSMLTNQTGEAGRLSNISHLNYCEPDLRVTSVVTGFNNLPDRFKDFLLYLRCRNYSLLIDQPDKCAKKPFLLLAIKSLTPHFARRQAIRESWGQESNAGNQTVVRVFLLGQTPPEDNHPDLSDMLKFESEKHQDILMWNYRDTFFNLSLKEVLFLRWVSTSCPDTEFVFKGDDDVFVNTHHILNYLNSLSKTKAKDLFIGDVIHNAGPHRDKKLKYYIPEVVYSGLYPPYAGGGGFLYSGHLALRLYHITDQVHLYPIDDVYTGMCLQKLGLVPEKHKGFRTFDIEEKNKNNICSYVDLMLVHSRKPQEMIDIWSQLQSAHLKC

B1: GANAB (protein)
chain: ITLAVDRSNFKTCEESSFCKRQRSIRPGLSPYRALLDSLQLGPDSLTVHLIHEVTKVLLVLELQGLQKNMTRFRIDELEPRRPRYRVPDVLVADPPIARLSVSGRDENSVELTMAEGPYKIILTARPFRLDLLEDRSLLLSVNARGLLEFEHQRAPRVSQGSKDPAEGDGAQPEETPRDGDKPEETQGKAEKDEPGAWEETFKTHSDSKPYGPMSVGLDFSLPGMEHVYGIPEHADNLRLKVTEGGEPYRLYNLDVFQYELYNPMALYGSVPVLLAHNPHRDLGIFWLNAAETWVDISSNTAGKTLFGKMMDYLQGSGETPQTDVRWMSETGIIDVFLLLGPSISDVFRQYASLTGTQALPPLFSLGYHQSRWNYRDEADVLEVDQGFDDHNLPCDVIWLDIEHADGKRYFTWDPSRFPQPRTMLERLASKRRKLVAIVDPHIKVDSGYRVHEELRNLGLYVKTRDGSDYEGWCWPGSAGYPDFTNPTMRAWWANMFSYDNYEGSAPNLFVWNDMNEPSVFNGPEVTMLKDAQHYGGWEHRDVHNIYGLYVHMATADGLRQRSGGMERPFVLARAFFAGSQRFGAVWTGDNTAEWDHLKISIPMCLSLGLVGLSFCGADVGGFFKNPEPELLVRWYQMGAYQPFFRAHAHLDTGRREPWLLPSQHNDIIRDALGQRYSLLPFWYTLLYQAHREGIPVMRPLWVQYPQDVTTFNIDDQYLLGDALLVHPVSDSGAHGVQVYLPGQGEVWYDIQSYQKHHGPQTLYLPVTLSSIPVFQRGGTIVPRWMRVRRSSECMKDDPITLFVALSPQGTAQGELFLDDGHTFNYQTRQEFLLRRFSFSGNTLVSSSADPEGHFETPIWIERVVIIGAGKPAAVVLQTKGSPESRLSFQHDPETSVLVLRKPGINVASDWSIHLR
B2: TRAFD1 (protein)
chain: AEFLDDQETRLCDNCKKEIPVFNFTIHEIHCQRNIGMCPTCKEPFPKSDMETHMAAEHCQVTCKCNKKLEKRLLKKHEETECPLRLAVCQHCDLELSILKLKEHEDYCGARTELCGNCGRNVLVKDLKTHPEVCGREGEEKRNEVAIPPNAYDESWGQDGIWIASQLLRQIEALDPPMRLPRRPLRAFESDVFHNRTTNQRNITAQVSIQNNLFEEQERQERNRGQQPPKEGGEESANLDFMLALSLQNEGQASSVAEQDFWRAVCEADQSHGGPRSLSDIKGAADEIMLPCEFCEELYPEELLIDHQTSCNPSRALPSLNTGSSSPRGVEEPDVIFQNFLQQAASNQLDSLMGLSNSHPVEESIIIPCEFCGVQLEEEVLFHHQDQCDQRPATATNHVTEGIPRLDSQPQETSPELPRRRVRHQGDLSSGYLDDTKQETANGPTSCLPPSRPINNMTATYNQLSRSTSGPRPGCQPSSPCVPKLSNSDSQDIQGRNRDSQNGAIAPGHVSVIRPPQNLYPENIVPSFSPGPSGRYGASGRSEGGRNSRVTPAAANYRSRTAKAKPSKQQGAGDAEEEEEE
B3: STAU1 (protein)
chain: MKLGKKPMYKPVDPYSRMQSTYNYNMRGGAYPPRYFYPFPVPPLLYQVELSVGGQQFNGKGKTRQAAKHDAAAKALRILQNEPLPERLEVNGRESEEENLNKSEISQVFEIALKRNLPVNFESFPLKQVARESGPPHMKNFVTKVSVGEFVGEGEGKSKKISKKNAAIAVLEELKKLPPLPAVERVKPRIKKKTKPIVKPQTSPEYGQGINPISRLAQIQQAKKEKEPEYTLLTERGLPRRREFVMQVKVGNHTAEGTGTNKKVAKRNAAENMLEILGFKVPQAQPTKPALKSEEKTPIKKPGDGRKVTFFEPGSGDENGTSNKEDEFRMPYLSHQQLPAGILPMVPEVAQAVGVSQGHHTKDFTRAAPNPAKATVTAMIARELLYGGTSPTAETILKNNISSGHVPHGPLTRPSEQLDYLSRVQGFQVEYKDFPKNNKNEFVSLINCSSQPPLISHGIGKDVESCHDMAALNILKLLSELDQQSTEMPRTGNGPMSVCGRC
B4: KTN1 (protein)
chain: MEFYESAYFIVLIPSIVITVIFLFFWLFMKETLYDEVLAKQKREQKLIPTKTDKKKAEKKKNKKKEIQNGNLHESDSESVPRDFKLSDALAVEDDQVAPVPLNVVETSSSVRERKKKEKKQKPVLEEQVIKESDASKIPGKKVEPVPVTKQPTPPSEAAASKKKPGQKKSKNGSDDQDKKVETLMVPSKRQEALPLHQETKQESGSGKKKASSKKQKTENVFVDEPLIHATTYIPLMDNADSSPVVDKREVIDLLKPDQVEGIQKSGTKKLKTETDKENAEVKFKDFLLSLKTMMFSEDEALCVVDLLKEKSGVIQDALKKSSKGELTTLIHQLQEKDKLLAAVKEDAAATKDRCKQLTQEMMTEKERSNVVITRMKDRIGTLEKEHNVFQNKIHVSYQETQQMQMKFQQVREQMEAEIAHLKQENGILRDAVSNTTNQLESKQSAELNKLRQDYARLVNELTEKTGKLQQEEVQKKNAEQAATQLKVQLQEAERRWEEVQSYIRKRTAEHEAAQQDLQSKFVAKENEVQSLHSKLTDTLVSKQQLEQRLMQLMESEQKRVNKEESLQMQVQDILEQNEALKAQIQQFHSQIAAQTSASVLAEELHKVIAEKDKQIKQTEDSLASERDRLTSKEEELKDIQNMNFLLKAEVQKLQALANEQAAAAHELEKMQQSVYVKDDKIRLLEEQLQHEISNKMEEFKILNDQNKALKSEVQKLQTLVSEQPNKDVVEQMEKCIQEKDEKLKTVEELLETGLIQVATKEEELNAIRTENSSLTKEVQDLKAKQNDQVSFASLVEELKKVIHEKDGKIKSVEELLEAELLKVANKEKTVQDLKQEIKALKEEIGNVQLEKAQQLSITSKVQELQNLLKGKEEQMNTMKAVLEEKEKDLANTGKWLQDLQEENESLKAHVQEVAQHNLKEASSASQFEELEIVLKEKENELKRLEAMLKERESDLSSKTQLLQDVQDENKLFKSQIEQLKQQNYQQASSFPPHEELLKVISEREKEISGLWNELDSLKDAVEHQRKKNNDLREKNWEAMEALASTEKMLQDKVNKTSKERQQQVEAVELEAKEVLKKLFPKVSVPSNLSYGEWLHGFEKKAKECMAGTSGSEEVKVLEHKLKEADEMHTLLQLECEKYKSVLAETEGILQKLQRSVEQEENKWKVKVDESHKTIKQMQSSFTSSEQELERLRSENKDIENLRREREHLEMELEKAEMERSTYVTEVRELKDLLTELQKKLDDSYSEAVRQNEELNLLKAQLNETLTKLRTEQNERQKVAGDLHKAQQSLELIQSKIVKAAGDTTVIENSDVSPETESSEKETMSVSLNQTVTQLQQLLQAVNQQLTKEKEHYQVLE
B5: PSMB6 (protein)
chain: TTIMAVQFDGGVVLGADSRTTTGSYIANRVTDKLTPIHDRIFCCRSGSAADTQAVADAVTYQLGFHSIELNEPPLVHTAASLFKEMCYRYREDLMAGIIIAGWDPQEGGQVYSVPMGGMMVRQSFAIGGSGSSYIYGYVDATYREGMTKEECLQFTANALALAMERDGSSGGVIRLAAIAESGVERQVLLGDQIPKFAVATLPPA
B6: ERP44 (protein)
chain: EITSLDTENIDEILNNADVALVNFYADWCRFSQMLHPIFEEASDVIKEEFPNENQVVFARVDCDQHSDIAQRYRISKYPTLKLFRNGMMMKREYRGQRSVKALADYIRQQKSDPIQEIRDLAEITTLDRSKRNIIGYFEQKDSDNYRVFERVANILHDDCAFLSAFGDVSKPERYSGDNIIYKPPGHSAPDMVYLGAMTNFDVTYNWIQDKCVPLVREITFENGEELTEEGLPFLILFHMKEDTESLEIFQNEVARQLISEKGTINFLHADCDKFRHPLLHIQKTPADCPVIAIDSFRHMYVFGDFKDVLIPGKLKQFVFDLHSGKLHREFHHGPDPTDTAPGEQAQDVASSPPESSFQKLAPSEYRYTLLRDRDEL
B7: STAU2 (protein)
chain: MANPKEKTAMCLVNELARFNRVQPQYKLLNERGPAHSKMFSVQLSLGEQTWESEGSSIKKAQQAVANKALTESTLPKPVQKPPKSNVNNNPGSITPTVELNGLAMKRGEPAIYRPLDPKPFPNYRANYNFRGMYNQRYHCPVPKIFYVQLTVGNNEFFGEGKTRQAARHNAAMKALQALQNEPIPERSPQNGESGKDVDDDKDANKSEISLVFEIALKRNMPVSFEVIKESGPPHMKSFVTRVSVGEFSAEGEGNSKKLSKKRAATTVLQELKKLPPLPVVEKPKLFFKKRPKTIVKAGPEYGQGMNPISRLAQIQQAKKEKEPDYVLLSERGMPRRREFVMQVKVGNEVATGTGPNKKIAKKNAAEAMLLQLGYKASTNLQDQLEKTGENKGWSGPKPGFPEPTNNTPKGILHLSPDVYQEMEASRHKVISGTTLGYLSPKDMNQPSSSFFSISPTSNSSATIARELLMNGTSSTAEAIGLKGSSPTPPCSPVQPSKQLEYLARIQGFQAALSALKQFSEQGLDPIDGAMNIEKGSLEKQAKHLREKADNNQAPPGSIAQDCKKSNSAV

The first experiment concerns the target T1, B3GNT2. Kind of experiment: Co-IP of FLAG-tagged B3GNT2 followed by mass spectrometry. The following applies: Co-IP with FLAG antibody, C-terminally FLAG-tagged B3GNT2; mass spectrometry count, unit not given. The arrangement: C-term IgG / C-term flag: unit not given here. Type of experiment: cell-based. The essentials:
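FLAG-tagged B3GNT2 immunoprecipitated from cell lysate (HEPES, 1% Triton X-100, 150 mM NaCl) with anti-FLAG versus […], overnight at 4° C, then captured on Protein A/G magnetic beads for 4 h. Two biological replicates per condition. Peptides fractionated and analyzed by nano-LC on an Orbitrap Elite in data-dependent mode.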
For B1, the C-term flag stood at 8.
Same read-out and setting: to B2 belongs 2; to B3, 6; to B4, 2.
B5: the C-term flag came to 3.
B6: the C-term flag is on record as 2.
As to B7, the C-term flag was 2.

The experiment is the same for the next values; noted with them: Co-IP with FLAG antibody, N-terminally FLAG-tagged B3GNT2; mass spectrometry count, unit not given.
With B1, the “N-term FLAG” value is 0.
Still for that read-out and setting: the same measure for B2: 0; for B3: 2; for B4: 0.
In the case of B5, the “N-term FLAG” value is 5.
As to B6, the “N-term FLAG” value was 0.
B7: the “N-term FLAG” value was 0.

Still in this experiment, the particulars now being: Co-IP with IgG control antibody, C-terminally FLAG-tagged B3GNT2; mass spectrometry count, unit not given.
Consider B1, for which the “C-term IgG” value came out at 0.
On the same count and under the same terms, the same measure for B2: 0.
In the case of B3, the “C-term IgG” value is recorded as 0.
On to B4, for which the “C-term IgG” value is recorded as 0.
Take B5: the “C-term IgG” value amounted to 0.
As to B6, the “C-term IgG” value is 0.
Same read-out and setting: to B7 belongs 0.

The experiment is the same for the next values; noted with them: Co-IP with IgG control antibody, N-terminally FLAG-tagged B3GNT2; mass spectrometry count, unit not given.
Take B1: the “N-term IgG” value turned out to be 0.
B2: the “N-term IgG” value amounted to 0.
On to B3, for which the “N-term IgG” value came to 0.
As for B4, the “N-term IgG” value came out at 0.
As to B5, the “N-term IgG” value was determined as 0.
Turning to B6, the “N-term IgG” value was 0.
With B7, the “N-term IgG” value is recorded as 0.
